# Measured values from patent US20220193133A1.
# B1: AMD71 (huB11_CNTY3+4_A02 anti-idiotype VHH IgG1-Fc fusion) (Fc fusion, not shown: a dimerising Fc or GST)
# chain: EVQLLESGGGLVQPGGSLRLSCAASGRTYTGSAMGWYRQAPGKERELVSAISTGGETYYADSVKGRFTISRDNSKNTLYLQMNSLRAEDTAVYYCAAGYVGLPYTYRPATSRRGYTYWGQGTQVTVSS
# Target: D04-his tagged VHH (humanized D04)
# Test: Octet (BLI), anti-idiotype VHH-Fc vs his-tagged VHH; table title prints B11-his, paragraph 353 ties these values to D04
binder,measurement,value
B1,Response,0.0062
same,koff,< 1e-07 s⁻¹
same,kon,2160 M⁻¹ s⁻¹
